Measurements: publication PMC8476842, “Uncovering and Engineering a Mini-Regulatory Network of the TetR-Family Regulator SACE_0303 for Yield Improvement of Erythromycin in Saccharopolyspora erythraea”

Experiments:
[1] = molecular target: T1, SACE_0303 (TetR-family regulator) (Saccharopolyspora erythraea) (UniProt A4F6H8); assay: EMSA; conditions: EMSA: 10 mM Tris-HCl pH 7.5, 60 mM KCl, 50 mM EDTA (so in the source), 10 mM DTT, 5 mM MgCl2, 10% glycerol, 150 ng probe, 20 uL, 30 C 20 min; footprint at 20 C
T1 sequence: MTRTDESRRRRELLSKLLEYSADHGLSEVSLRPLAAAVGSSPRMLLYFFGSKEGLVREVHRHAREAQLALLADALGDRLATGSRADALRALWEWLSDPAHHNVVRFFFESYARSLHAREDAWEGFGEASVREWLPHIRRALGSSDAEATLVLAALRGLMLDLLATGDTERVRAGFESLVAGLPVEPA

[2] = molecular target: T1, SACE_0303 (TetR-family regulator) (Saccharopolyspora erythraea); assay: DNase I footprinting; conditions: EMSA: 10 mM Tris-HCl pH 7.5, 60 mM KCl, 50 mM EDTA (so in the source), 10 mM DTT, 5 mM MgCl2, 10% glycerol, 150 ng probe, 20 uL, 30 C 20 min; footprint at 20 C
[3] = molecular target: T2, SACE_0303 (TetR-family regulator) (Saccharopolyspora erythraea, UniProt A4F6H8 1-187); assay: EMSA; EMSA: 10 mM Tris-HCl pH 7.5, 60 mM KCl, 50 mM EDTA (so in the source), 10 mM DTT, 5 mM MgCl2, 10% glycerol, 150 ng probe, 20 uL, 30 C 20 min; footprint at 20 C; conditions: protein: recombinant; tags: His6 (pET28a, NdeI/HindIII); chain copies: 2; blunt
T2 sequence: T1 sequence

## AGCTTTGACAGGTCCGCCACGCGTCCCCCTACTCGACGACCACGCAATGGGCGAACAATATAGGAAGGATCAAGAGGTTGACATCGCCTCGTCGAGCCAACGAACCTGTGAACATCTGCATGTTGACAAGATCAACGGCGGCTACCTACTGTGGTGGCCCAGTGACGGGTTGCCGCACATCGCGCTGGGGAGATTCTTTGAATTTCGCCCGTAGCACCGACCTGGAAAGCGAGCAAATGCTCCGGTGAATGGGATCAGTGATTC (double strand) [PeryAI]
[1]
  binding: no binding

## CGACCTCGGCCGCCTGCTGTCCTGCCGGCGGGCGGCACGTGCCGCGGTCCGCTGAAACGGTTGCGAAAACGGGAAATCACCGCTGAGGGTGGCCGCCGCCGGCGGATTGCGCCGCCGAGATCGGCATGCCTAGGCTTCCACCACCGCTCCATCACGTGCGGGGTCCGGGTCCGGGAGCAGCCGATGCCGCAAGACGCGTGTACTTCCGCCCGGCAGAACACGTCCTCG (double strand) [P3156]
[1]
  binding: binds

## CGCTGGATCCTACCAACCGGCACGATTGTCCAGCCCACAACAGCATCGCGGTGCCACGTGTGGACCGCGTCGGTCAGATCCTCCCCGCACCTCTCGCCAGCCGTCAAGATCGACCGCGTGCACCTGCGATCGCCGATCAACCGCGACTAGCATCGGGCGCAAGCCGCCACTCGAACGGACACTCGC (double strand) [PermE]
[1]
  binding: no binding

## GGCGACGGCGGCTTTCGTCGGTGCGGGTCATCCGGATATCGTACTGAAACGACTGTTTCAGGAGGGCGCATGGGCGGCATCGAGATCCGCACCGGCCCGC (double strand) [P0303-0304]
[1]
  binding: binds
[2]
  binding: binds

B1: P0303-0304-56 bpM (dsDNA)
DNA 1: GGGTCATCCGGATATCGTAAAGCTTGGACTGGAATTCGAGGGCGCATGGGCGGCAT
DNA 2: ATGCCGCCCATGCGCCCTCGAATTCCAGTCCAAGCTTTACGATATCCGGATGACCC
[3]
  binding result: no binding
